Measured values reported in publication PMC4837458.
Positions count from the first letter of the chain named.

Columns and labels:
[1] = system: dPPR-NN (designed (synthetic; NTD/CTD from Zea mays PPR10)); test: EMSA; conditions: 5 mM Mg2+; apparent Kd; EMSA: 25 mM Tris-HCl pH 8.0, 5 mM MgCl2, 5 mM DTT, 0.1 mg/ml BSA, 50 ng/ml heparin, 10% glycerol, ~2 nM 32P-RNA, 20 min on ice
[2] = system: dPPR-TN (designed (synthetic; NTD/CTD from Zea mays PPR10)); test: EMSA; conditions: 5 mM Mg2+; apparent Kd; EMSA: 25 mM Tris-HCl pH 8.0, 5 mM MgCl2, 5 mM DTT, 0.1 mg/ml BSA, 50 ng/ml heparin, 10% glycerol, ~2 nM 32P-RNA, 20 min on ice
[3] = system: dPPR-U8A2 N318S;D348N;N353S;D383N (designed (synthetic; NTD/CTD from Zea mays PPR10)), PDB:5I9D_1; test: EMSA; conditions: 5 mM Mg2+; apparent Kd; EMSA: 25 mM Tris-HCl pH 8.0, 5 mM MgCl2, 5 mM DTT, 0.1 mg/ml BSA, 50 ng/ml heparin, 10% glycerol, ~2 nM 32P-RNA, 20 min on ice
[4] = system: dPPR-4 (designed (synthetic; NTD/CTD from Zea mays PPR10)); test: EMSA; conditions: 5 mM Mg2+; apparent Kd; EMSA: 25 mM Tris-HCl pH 8.0, 5 mM MgCl2, 5 mM DTT, 0.1 mg/ml BSA, 50 ng/ml heparin, 10% glycerol, ~2 nM 32P-RNA, 20 min on ice
[5] = system: dPPR-SD (designed (synthetic; NTD/CTD from Zea mays PPR10)); test: EMSA; conditions: 5 mM Mg2+; apparent Kd; EMSA: 25 mM Tris-HCl pH 8.0, 5 mM MgCl2, 5 mM DTT, 0.1 mg/ml BSA, 50 ng/ml heparin, 10% glycerol, ~2 nM 32P-RNA, 20 min on ice
[6] = system: dPPR-U8G2 N318T;N353T (designed (synthetic; NTD/CTD from Zea mays PPR10)), PDB:5I9H_1; test: EMSA; conditions: 5 mM Mg2+; apparent Kd; EMSA: 25 mM Tris-HCl pH 8.0, 5 mM MgCl2, 5 mM DTT, 0.1 mg/ml BSA, 50 ng/ml heparin, 10% glycerol, ~2 nM 32P-RNA, 20 min on ice
[7] = system: T1, dPPR-U8C2 D348S;D383S (designed (synthetic; NTD/CTD from Zea mays PPR10)), PDB:5I9G_1; test: EMSA; conditions: 5 mM Mg2+; apparent Kd; EMSA: 25 mM Tris-HCl pH 8.0, 5 mM MgCl2, 5 mM DTT, 0.1 mg/ml BSA, 50 ng/ml heparin, 10% glycerol, ~2 nM 32P-RNA, 20 min on ice
T1 sequence: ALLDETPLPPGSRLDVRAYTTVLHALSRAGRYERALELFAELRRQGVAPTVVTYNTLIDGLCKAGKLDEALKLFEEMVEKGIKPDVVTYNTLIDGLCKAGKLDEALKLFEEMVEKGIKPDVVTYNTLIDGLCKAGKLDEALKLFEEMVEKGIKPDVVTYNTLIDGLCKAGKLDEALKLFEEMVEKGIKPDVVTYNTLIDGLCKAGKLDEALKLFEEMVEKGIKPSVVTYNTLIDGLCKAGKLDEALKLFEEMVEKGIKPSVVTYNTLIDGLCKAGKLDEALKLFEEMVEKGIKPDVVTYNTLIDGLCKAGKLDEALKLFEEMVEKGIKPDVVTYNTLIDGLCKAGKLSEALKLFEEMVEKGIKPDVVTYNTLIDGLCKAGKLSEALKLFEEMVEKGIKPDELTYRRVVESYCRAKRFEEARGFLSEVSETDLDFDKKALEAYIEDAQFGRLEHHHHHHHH

dPPR-U8C2 [8] = biological target: T2, dPPR-U8C2 (designed (synthetic; NTD/CTD from Zea …, UniProt PDB:5I9G_1 1-460, D348S;D383S); test: EMSA; C5,C6 to U; EMSA: 25 mM Tris-HCl pH 8.0, 5 mM MgCl2, 5 mM DTT, 0.1 mg/ml BSA, 50 ng/ml heparin, 10% glycerol, ~2 nM 32P-RNA, 20 min on ice
T2 sequence: T1 sequence

dPPR-U10 [9] = biological target: T3, dPPR-U10 (designed (synthetic; NTD/CTD from Zea …, UniProt PDB:5I9F_1 1-460); test: EMSA; 5 mM Mg2+; apparent Kd; EMSA: 25 mM Tris-HCl pH 8.0, 5 mM MgCl2, 5 mM DTT, 0.1 mg/ml BSA, 50 ng/ml heparin, 10% glycerol, ~2 nM 32P-RNA, 20 min on ice
T3 chain: T1 sequence with S225D, S260D, S348D, S383D

dPPR-U8C2 [10] = biological target: T2, dPPR-U8C2; test: X-ray crystallography; 2.30 A; EMSA: 25 mM Tris-HCl pH 8.0, 5 mM MgCl2, 5 mM DTT, 0.1 mg/ml BSA, 50 ng/ml heparin, 10% glycerol, ~2 nM 32P-RNA, 20 min on ice
dPPR-U10 [11] = biological target: T3, dPPR-U10; test: X-ray crystallography; 2.20 A; EMSA: 25 mM Tris-HCl pH 8.0, 5 mM MgCl2, 5 mM DTT, 0.1 mg/ml BSA, 50 ng/ml heparin, 10% glycerol, ~2 nM 32P-RNA, 20 min on ice

## UUUUUUUUUU [U10 target]
[1]
  Kd: 15.9 nM

## UUUUAAUUUU [U8A2 target]
[2]
  Kd: 58.9 nM
[3]
  Kd: 23.8 nM

## UUCCAGAU [dPPR-4 target]
[4]
  Kd: 24.6 nM

## UUUUGGUUUU [U8G2 target]
[5]
  Kd: 31.1 nM
[6]
  Kd: 29.8 nM

## UUUUCCUUUU [U8C2 target]
[1]
  Kd: 14.6 nM
[7]
  Kd: 18.5 nM

## UUUUUUUUUU (ssRNA) [U10 target]
dPPR-U8C2 [8]
  binding result: no binding
dPPR-U10 [9]
  Kd: 74.3 ± 7.9 nM

## GGGGUUUUCCUUUUCCCC (ssRNA) [18-nt U8C2 crystal RNA]
dPPR-U8C2 [10]
  binding result: binds

## GGGGUUUUUUUUUUCCCC (ssRNA) [18-nt U10 crystal RNA]
dPPR-U10 [11]
  binding result: binds
